Measurements published in patent US20220370630A1, “TRANSMUCOSAL DELIVERY SYSTEM FOR PHARMACEUTICAL ACTIVE INGREDIENT TO SUBMUCOSAL TISSUE OF BLADDER” (SEIKAGAKU CORPORATION, priority 2019, published 2022).

What was measured:
[1] = Release test: release ratio of API from the derivative in phosphate buffer solution pH 7.4 at 36° C., HPLC; type: physicochemical; conditions: phosphate buffer pH 7.4, 36° C.; for Release ratio of API: 5 mg/10 mL; for Release rate: slope of release ratio against time
Description: In Examples pertaining to a release test, a release ratio of a pharmaceutical active ingredient (API) from a chondroitin sulfate derivative and a hyaluronic acid derivative, each of which was not fluorescently labeled was evaluated as follows. […] The release ratio was calculated based on the ratio of peak areas of HPLC corresponding to the amount of API in the derivative and the amount of released API using a size-exclusion chromatography column (TSKgel α, manufactured by Tosoh Corporation). Release ratio (%)=peak area of released API/(peak area of API in each derivative+peak area of released API)×100 Also with respect to the hyaluronic acid derivatives of Comparative Examples 2 to 3, evaluation was performed in the same manner as for Examples.

[2] = Evaluation using rat 2: concentration of TA in the bladder after administration to the lumen of the bladder, LC/MS/MS; type: in vivo; conditions: bladder homogenate on day 7 after administration; TA dose 0.8 mg/animal into the bladder; hydrochloric acid-pretreated rat; read-out: Concentration of API (TA)
Description: In both Example and Comparative Example, the dose of TA was set to 0.8 mg/animal.
The pretreatment was performed in the same manner as in the evaluation 1.
One day after the pretreatment, 0.2 mL of each test substance was transurethrally administered into the bladder using a catheter (PE50) under isoflurane inhalation anesthesia and allowed to stay there for 30 minutes.
Seven days after administering the test substance, the animal was laparotomized under isoflurane inhalation anesthesia and exsanguinated and euthanized by cutting the abdominal aorta, and then, the bladder was collected. The bladder was homogenized in a mixed solution of methanol/buffer solution (10 mmol/L ammonium formate buffer solution (pH 6.0):methanol=3:2 (v/v)), and a measurement sample was prepared so that the tissue concentration was 0.05 g/mL.
Subsequently, the amount of TA in the measurement sample was quantitatively determined by an LC/MS/MS analysis under the following conditions using triamcinolone-6-d1 acetonide-d6 as an internal standard substance.

| Compound | Release ratio of API ([1]; elapsed time 0 days) [%] | Release ratio of API ([1]; elapsed time 1 day) [%] | Release ratio of API ([1]; elapsed time 2 days) [%] | Release ratio of API ([1]; elapsed time 3 days) [%] | Release ratio of API ([1]; elapsed time 4 days) [%] | Release ratio of API ([1]; elapsed time 5 days) [%] | Release ratio of API ([1]; elapsed time 6 days) [%] | Release ratio of API ([1]; elapsed time 7 days) [%] | Release rate [1] [%/day] | concentration at 7 days [2] [ng/g] | Release of API (result in words) ([1]; 1 week) |
| --- | --- | --- | --- | --- | --- | --- | --- | --- | --- | --- | --- |
| 2-Aminoethyl-Diclofenac-Introduced CS [CS-DIC-conjugate] | 0.00 | 0.95 | 2.06 | 3.13 | 4.11 | 5.40 | 6.55 | 7.62 | 1.10 | – | – |
| 2-Aminoethyl-Probenecid-Introduced CS [CS-PRO-conjugate] | 0.31 | 0.83 | 1.43 | 2.13 | 2.91 | 3.63 | 4.56 | 5.29 | 0.72 | – | – |
| 2-Aminoethyl-Dehydrocholate-Introduced CS [CS-DEH-conjugate] | 0.45 | 0.53 | 0.52 | 0.66 | 0.65 | 0.78 | 1.29 | 1.42 | 0.14 | – | – |
| β-alanyl-hydroxyzine-introduced CS [CS-HYD-conjugate] | 0.00 | 0.65 | 1.48 | 2.38 | 3.35 | 4.30 | 5.24 | 6.05 | 0.89 | – | – |
| CC1(C)O[C@@H]2C[C@H]3[C@@H]4CCC5=CC(=O)C=C[C@]5(C)[C@@]4(F)[C@@H](O)C[C@]3(C)[C@]2(C(=O)CO)O1 [TA, triamcinolone acetonide] | – | – | – | – | – | – | – | – | – | 4.09 | – |
| 3-Aminopropyl Cinnamate-Introduced HA [HA-CIN-conjugate, reference compound] | 0.00 | 0.00 | 0.00 | 0.00 | 0.00 | 0.00 | 0.00 | 0.00 | 0.00 | – | release of cinnamic acid was not observed |
